Measured values published in the supplement of paper PMC10567573.
± gives the standard deviation.

Assay: protein stability index of a GFP-peptide fusion (GPS, HEK-293T) (PSI 1-6); higher = more stable
Conditions: c terminus: a fixed tail appended
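Further: 24-mer peptide tiles fused after GFP, lentivirally expressed, FACS-sorted into six equal bins by GFP/DsRed ratio, decoded by Illumina sequencing, PSI is the read-weighted mean bin number.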

Sequence | protein stability index (treatment: DMSO) | protein stability index (treatment: MLN4924 1 uM, 8 h)
LLATFPRRALAPPSAGFRCCAAPG [ANKRD9] | 2.47 ± 0.16 | 2.45 ± 0.14
GSLDIMKMLLMYCAKMEKDGYGMT [FEM1C] | 3.22 ± 0.46 | 2.58 ± 0.7
AVGGRDDTTELSSAERYNPRTNQW [KLHL20] | 4.47 ± 0.21 | 4.5 ± 0.16
QDAVDQVKVIMDALDERAKVLHED [TRIM29] | 4.93 ± 0.1 | 4.93 ± 0.34
KSKPDRKRAESDSRKSSIPNNKEI [PTPRD] | 5.329 ± 0.046 | 5.46 ± 0.16
LTTEKQNFLLFDMTTHPLTNNNIK [GOLPH3] | 2.98 ± 0.18 | 3.09 ± 0.17
KGYNIWTGGPDACLRCWDQRTIMK [TLE6] | 2.32 ± 0.18 | 2.45 ± 0.14
VQDYSYFFFLRMDENYNLLPHGVN [CCDC3] | 2.38 ± 0.48 | 2.48 ± 0.37
TGNYRKGNAHLGYSLVTHIPAGAR [ADAMTSL2] | 2.95 ± 0.17 | 2.69 ± 0.3
ALALANSDSVHIEDAEAVEQLREA [ESRRA] | 5.18 ± 0.3 | 5.26 ± 0.28
GQILELPWKEETFLVLQSLLERQV [FANCE] | 1.9 ± 0.35 | 2.1 ± 0.34
QRVEKDMKKAKEQLKIRKSNQIPT [FUNDC2] | 4.58 ± 0.32 | 4.56 ± 0.26
YPTDNTKVMIFKSSYSLSDMVSNI [MIA2] | 2.51 ± 0.62 | 2.436 ± 0.003
NLKFITDPFVCRLRHLSPTPSEEH [OR4A15] | 2.54 ± 0.11 | 3 ± 0.2
PENVEDSGLDSPSHAAPGPSPDSW [FCHO1] | 5.37 ± 0.13 | 5.46 ± 0.2
KQEMGTYLRFIVSRMKERAIDLNK [ZMYND11] | 2.9 ± 0.73 | 2.71 ± 0.69
RYIIFKRNTLNQPCSGSVSLQPRR [GMCL1] | 2.27 ± 0.22 | 2.36 ± 0.43
ALVSAHSEWQRKLEAAEALLTLRN [DMRTC1] | 3.44 ± 0.24 | 3.57 ± 0.17
KPYTCSVCGKSFSRTTCLFLHLRT [ZNF8] | 2.54 ± 0.39 | 2.89 ± 0.7
QNLSRSWHDVQVSSAYVKTSEKLG [TPD52L2] | 3.98 ± 0.11 | 3.82 ± 0.21
VKYGLAATVWSSNVGRVHRVAKKL [ALDH8A1] | 2.48 ± 0.33 | 2.43 ± 0.4
QPPEMIGPMRPEQFSDEVEPATPE [GAGE1] | 5.03 ± 0.33 | 5.17 ± 0.17
PIGELYGLSESSGPHTISNQNNYR [ACSBG2] | 3.91 ± 0.31 | 4.07 ± 0.57

Sequence | protein stability index (treatment: DMSO) | protein stability index (treatment: MLN4924 1 uM, 8 h)
RVYNNTLTYGEVRNSKASAYCLDQ [GALNT9] | 2.98 ± 0.16 | 3.07 ± 0.31
SHDPQSSRGSRRRRRQRSEKKKAH [KCNA4] | 5.38 ± 0.53 | 5.38 ± 0.23
SPELQEEFGYNAETQKLLCKNGET [ARFIP2] | 5.31 ± 0.29 | 5.46 ± 0.11
LVLKIMSGTFAPISDRYSPELRQL [NEK8] | 2.9 ± 0.6 | 2.69 ± 0.5
HTRQLISCGGDGGIVVWNMDVERQ [WDFY2] | 2.55 ± 0.36 | 2.4 ± 0.14
GPAVVCGTPTSHVYMFKNGSGDSG [LYSMD4] | 3.7 ± 0.12 | 3.65 ± 0.33
WRGNGINVLKIAPESAIKFMAYEQ [SLC25A25] | 2.19 ± 0.29 | 2.36 ± 0.19
TKITSKHVKMMLSGVCLFAVFIAL [PTGFR] | 3.2 ± 0.24 | 2.78 ± 0.1
SVRISFAKGWGPCYSRQFITSCPC [SMAD6] | 2.79 ± 0.67 | 2.78 ± 0.85
SPNFDGWFKTRRKEMTQKLEALHL [DENND6A] | 2.91 ± 0.18 | 3.2 ± 0.41
RTELVEQAFRAIDRADYYLEEFKE [PCMTD2] | 4.1 ± 0.12 | 4.12 ± 0.19
FAKAKPEIPWTSLTRKGLVRVVFF [PHTF1] | 3.41 ± 0.51 | 3.29 ± 0.84
DFDDEKILIQHQKAKHFKCHICHK [ZNF207] | 2.85 ± 0.31 | 3.31 ± 0.19
ADDLVLTLSNPQMSLEGTEKASWL [ELF3] | 3.62 ± 0.29 | 3.85 ± 0.26
AVRKLKFARHIKKSEGQKIPKVEL [GULP1] | 3.1 ± 0.091 | 3.13 ± 0.21
LKFDAYFQEDVPMSTEEQYRIRQV [EFHC1] | 3.44 ± 0.14 | 3.46 ± 0.28
QSAQIACSSPSVVASLPLDQSDEG [MAGEA10] | 5.5 ± 0.45 | 5.236 ± 0.029
EEGESLLCLACSAGYYELAQVLLA [ANKRD17] | 2.17 ± 0.4 | 2.39 ± 0.25
FYLPREELWIYNMETGRWKKINTE [KLHDC2] | 2.63 ± 0.22 | 2.32 ± 0.49
FCADNPSELPPPMERTGGIGDSRP [DVL3] | 4.45 ± 0.32 | 4.62 ± 0.32
PGEGLLISWAFTDRPDLSLTVLPK [C2CD2L] | 2.64 ± 0.48 | 2.37 ± 0.44
NCTLIISYQKPKEVVVAESELQKE [DPCD] | 2.18 ± 0.19 | 2.49 ± 0.2
NILEKEVLPPIHAYGNRTECRNPQ [FEM1B] | 4.03 ± 0.079 | 4.18 ± 0.11

Sequence | protein stability index (treatment: DMSO) | protein stability index (treatment: MLN4924 1 uM, 8 h)
YGPVEVISHWHPNITINIVDDHTP [CLPTM1] | 2.41 ± 0.23 | 2.54 ± 0.17
SKRLYGVYDNEKKLQLQLNETKSQ [PLD5] | 4.19 ± 0.27 | 4 ± 0.18
MAAQRNRSKESKDCSGLVLLCLFF [PCDHGA10] | 2.29 ± 0.27 | 1.83 ± 0.32
EMIITKAGRRMFPSYKVKVTGLNP [TBX5] | 2.12 ± 0.14 | 2.4 ± 0.32
DRQELTYQELLRVCCCELGVNPDQ [ANKRD40] | 3.24 ± 0.24 | 3.34 ± 0.36
GGPSSPPSDPPAMSPGPLDALSSP [C2CD2L] | 5.23 ± 0.26 | 5.27 ± 0.14
YQLCRVQECPPDGRSFREEQCVSF [ADAMTSL2] | 2.92 ± 0.65 | 2.97 ± 0.32
FYTLSPNSHFSLNVKTLKDGKPFP [PCDHGC5] | 2.6 ± 0.21 | 2.62 ± 0.24
CYDPKGDQWNILQTPILEGRSGPG [KLHL14] | 2.53 ± 0.31 | 2.77 ± 0.43
HLELTRKLQDLIKDVLRYGEEQLK [FCHO1] | 2.95 ± 0.52 | 2.71 ± 0.69
WEMIRKIGDTSVSYKYTSRYVLKA [LMNB1] | 1.98 ± 0.58 | 2.56 ± 0.49
AFASFTSGVVRIWDLRDQSVVRDL [TLE6] | 2.36 ± 0.47 | 2.21 ± 0.35
AIWDDTDSMYGECRTYIIHYYLMD [EFHC1] | 2.83 ± 0.52 | 2.67 ± 0.64
WNDSCGEDMEASDYELEDETRPAK [WEE1] | 5.41 ± 0.32 | 5.45 ± 0.17
LFLMECEESPNGSEGACEKEKQSR [RHOBTB1] | 4.69 ± 0.44 | 4.83 ± 0.17
RKEGIVKLKPHEEPLRSEILSGKF [PTPN9] | 4.16 ± 0.13 | 4.08 ± 0.14
AQEEEEEDQGRTRKRKQSGHSPAR [DDIT3] | 5.47 ± 0.31 | 5.7 ± 0.24
LSFSGSDVQNKLKESAQCVGDEFL [SNX8] | 4.48 ± 0.2 | 4.49 ± 0.21
HHLFPTMPRHNYHKVAPLVQSLCA [FADS1] | 2.4 ± 0.32 | 2.51 ± 0.17
LRSRASRCRPRSLIDYKSYMDTKL [FAM189A2] | 2.3 ± 0.28 | 2.19 ± 0.23
NAQIPELKSDLEKASALNTKIRAL [CD207] | 4.016 ± 0.023 | 3.86 ± 0.48
LLRDHIPRGKEELESLGGGKTPPG [MOG] | 4.89 ± 0.18 | 4.81 ± 0.37
YHPRDQNKVLVCPMKSAPVMLTLS [RBBP5] | 2.33 ± 0.66 | 2.34 ± 0.3

Sequence | protein stability index (treatment: DMSO) | protein stability index (treatment: MLN4924 1 uM, 8 h)
SLLGEPCAGPGFTHNIAHGSLGFE [SPAG8] | 3.03 ± 0.45 | 2.92 ± 0.4
KEHVPTWLQNTHVYSWPKNKKNIL [TRAF3IP2] | 2.71 ± 0.081 | 3.43 ± 0.24
GGYFKAHIKFPIDYPYSPPTFRFL [UBE2R2] | 2.61 ± 0.96 | 2.71 ± 0.52
LRAEEIETRVTSGSMEALNLKQLR [PPFIA4] | 4.32 ± 0.28 | 4.58 ± 0.57
KVASSDLVNMGISVVSYTLKDIHD [FLOT1] | 2.34 ± 0.17 | 2.37 ± 0.29
RRGIGGIFFDDLDSPSKEEVFRFV [CPOX] | 2.28 ± 0.2 | 2.64 ± 0.27
LIKDAIVSTQPAMMVNLRACSAPG [C2CD2L] | 2.82 ± 0.26 | 2.54 ± 0.31
PSGFKHVSHVGWDPQNGFDVNNLD [WAS] | 3.83 ± 0.24 | 3.79 ± 0.58
SVNFDGETIEGAPPLWAASAAGHL [FEM1C] | 3.52 ± 0.23 | 3.6 ± 0.23
PNFMKVIPAVSISYVVYENLKITL [SLC25A25] | 3.2 ± 0.4 | 3.46 ± 0.52
DKTPVLLTDYPVDLDEIAYFTWAS [MYORG] | 2.64 ± 0.36 | 2.86 ± 0.4
DKAMKKDGLVGMAIVGGMALGVAG [FIS1] | 2.89 ± 0.16 | 2.67 ± 0.12
SKYGIINLQSLKTPTLKVFMHENL [DCAF4] | 1.8 ± 0.43 | 2.03 ± 0.26
IFAQGAPRSSLAESFFVDYEENEG [ADAMTSL2] | 4.05 ± 0.067 | 4.98 ± 0.26
GTCALWDVESGQLLQSFHGHGADV [GNB5] | 2.75 ± 0.28 | 2.99 ± 0.51
VNNNYEHRHTSHLGHAVLPSNARG [SPRY1] | 3.96 ± 0.2 | 4.03 ± 0.21
KYSLPWTTLDEFPLTRLGQLKACT [KCNG1] | 2.42 ± 0.25 | 2.61 ± 0.34
HQVPTTAGNKAALLDQIREGAQLK [WASL] | 4.95 ± 0.18 | 4.86 ± 0.33
EVTLEANPTSAPGSRLAEFGAAGV [RSAD1] | 4.21 ± 0.13 | 4.25 ± 0.24
PAMSPYWRTWMTITQSWQVSVRVQ [C22orf15] | 2.51 ± 0.41 | 2.74 ± 0.3
